“Also recorded” adds a separate entry of the source. Where two headings read alike, the source gives them in different places.
Target: T1, BAP (residues 1-28) (Homo sapiens, UniProt P05067)
T1 construct: residues 1-28 of BAP or residues 597-624 of BAPP; purchased Bachem Inc., Torrance, Calif; host or cells: synthetic peptide
Test: Affinity column chromatography of labeled proteoglycans on BAP (1-28) Affi-gel 10 column
Assay type: binding
Protocol: Approximately 500,000 dpm of ^35S-sulfate labeled PGs isolated from the culture media of ECs were applied to Affi-gel 10 affinity columns containing approximately 0.45 mg of 1) residues 1-28 of BAP, 2) residues 410-429, a region of BAPP present in the extracellular domain, or 3) bovine serum albumin. The labeled PGs were left on the column for 1 hour, after which non-bound radiolabelled PGs were eluted with 25 ml (50 0.5 ml fractions) of TBS+0.1% TX-100 and collected on a fraction collector. Bound PGs were then eluted from the column with 15 mls of 4M MgCl2 in TBS+0.1% TX-100.
0.5 mg or 1.0 mg of ligands consisting of 1) BAP (1-28) (Bachem Inc., Torrance, Calif.), 2) a peptide corresponding to residues 410-429 of the BAPP (gift of Dr. Dennis Selkoe, Boston, U.S.A.) or 3) bovine serum albumin (BSA fraction V, Boehringer, Mannheim Biochemical) were dissolved initially in 400 μl of double distilled water to which was added an equal volume of 0.2 M HEPES buffer (pH 7.5) containing 160 mM calcium chloride. The ligand solutions were added to 0.8-1.0 ml of Affi-gel 10 (Biorad, Richmond, Calif.) and coupling was allowed to proceed for 4 hours at 4° C., after which 1/10 volume of IM ethanolamine (pH 8.0) was added and incubation continued for an additional 1-2 hours to block remaining unreacted ester groups. Gel coupled ligand was then transferred to Biorad Econo-columns and washed with TBS in 0.1% Triton-X 100. To assess the amount of bound ligand, soluble (nonbound) protein remaining in the wash buffer was assayed. The affinity columns coupled approximately 90% of ligand initially applied (i.e. 0.45 mg or 0.90 mg).
^35S-sulfate labeled PGs isolated from the culture media (360,000 dpm) of ECs and SMCs were applied to Affi-gel 10 columns containing 1) BAP (residues 1-28), 2) BAPP (residues 410-429) or 3) Bovine serum albumin. The labeled PGs were allowed to interact with the affinity gel for 1 hour (preliminary experiments indicated maximum binding efficiency at 1 hour) and non-bound radiolabelled PGs were eluted with 25 ml of TBS+0.1% Triton X-100 (TBS-TX 100). Bound PGs were eluted with either a single-step gradient using 15 mls of 4M MgCl2 in TBS-TX 100 or a linear gradient of 0 to 4M MgCl2 in TBS-TX 100. In some experiments, columns were further eluted with 15 ml of 8M urea in 50 mM Tris-HCl (pH 7.5), with 0.5% Triton X-100 and 3M NaCl. The radioactivity per fraction was determined by scintillation counting. Most experiments were repeated a minimum of three times. Recoveries of applied radioactivity from the affinity columns ranged from 80-95%.

T1 sequence (P05067 672-699 limits assumed): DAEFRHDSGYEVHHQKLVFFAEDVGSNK

Substance: high Mr HSPG: ˜600-800 kDa heparan sulfate proteoglycan isolated from culture media of bovine aortic endothelial cells
- binding to BAP (1-28) affinity column: strong binding; also recorded: bound tightly
- eluent that removed most bound PGs from BAP column (after 0 to 4M MgCl2 gradient and 4M MgCl2 wash): 8M urea+3M NaCl
- binding to BAP (1-28) affinity column (listed as 125I-HSPG): high affinity

Source: patent US6340783B1, “Rodent models of human amyloidoses” (University of Washington, priority 1992, dated 2002)
